Publication PMC8565349 (Nucleic Acids Research, 2021)
Residue numbers refer to the chain shown, from its start. Numbers in names are those of the source.

T1: purified S. aureus β-clamp (ITC sample) (S. aureus, UniProt P0A024 1-377)
T1 sequence: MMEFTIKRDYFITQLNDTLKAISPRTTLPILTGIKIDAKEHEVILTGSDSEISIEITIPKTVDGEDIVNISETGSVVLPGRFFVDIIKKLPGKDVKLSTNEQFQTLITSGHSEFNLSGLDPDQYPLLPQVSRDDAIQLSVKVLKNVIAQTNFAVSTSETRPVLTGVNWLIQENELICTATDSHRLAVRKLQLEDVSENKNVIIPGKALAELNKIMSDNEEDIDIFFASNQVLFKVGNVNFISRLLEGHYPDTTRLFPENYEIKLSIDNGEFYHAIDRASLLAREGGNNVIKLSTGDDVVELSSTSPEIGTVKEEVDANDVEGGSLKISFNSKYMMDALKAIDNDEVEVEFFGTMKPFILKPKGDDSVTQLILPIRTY

B1: polyhistidine-tagged Gp168 of bacteriophage Twort (natural protein)
chain: MLFFKEKFYNELSYYRGGHKDLESMFELALEYIEKLEEEDEQQVTDYENAMEEELRDAVDVIESQLEIIKDIVR
B2: polyhistidine-tagged Gp168 Y14A (natural protein, bacteriophage Twort)
chain: B1 chain with Y14A

What was measured:
cryo-EM structure = biological target: the molecule itself; assay: cryo-EM structure
SEC-MALS = biological target: the molecule itself; assay: SEC-MALS
[1] = biological target: T1, purified S. aureus β-clamp (ITC sample); assay: ITC
SEC = biological target: the molecule itself; assay: SEC

| Binder | stoichiometry N (cryo-EM structure) | stoichiometry N (SEC-MALS) | Kd [1] [nM] | stoichiometry N [1] | stoichiometry N (SEC) |
| --- | --- | --- | --- | --- | --- |
| B1 | 2 | 6 | 95 ± 16.7 | 0.16 ± 0.003 |  |
| B2 |  |  |  |  | 6 |
